The experiment has as its target T1, GST-GEF1 (Arabidopsis thaliana, UniProt Q93ZY2 1-548).
T1 construct: RopGEF1 (GEF1), Arabidopsis thaliana; also called GST-tagged GEF1; GST-RopGEF1; source: E. coli Rosetta (DE3) pLysS, purified (Glutathione Sepharose); not shown: GST, N-terminal, kept
T1 sequence (looked up): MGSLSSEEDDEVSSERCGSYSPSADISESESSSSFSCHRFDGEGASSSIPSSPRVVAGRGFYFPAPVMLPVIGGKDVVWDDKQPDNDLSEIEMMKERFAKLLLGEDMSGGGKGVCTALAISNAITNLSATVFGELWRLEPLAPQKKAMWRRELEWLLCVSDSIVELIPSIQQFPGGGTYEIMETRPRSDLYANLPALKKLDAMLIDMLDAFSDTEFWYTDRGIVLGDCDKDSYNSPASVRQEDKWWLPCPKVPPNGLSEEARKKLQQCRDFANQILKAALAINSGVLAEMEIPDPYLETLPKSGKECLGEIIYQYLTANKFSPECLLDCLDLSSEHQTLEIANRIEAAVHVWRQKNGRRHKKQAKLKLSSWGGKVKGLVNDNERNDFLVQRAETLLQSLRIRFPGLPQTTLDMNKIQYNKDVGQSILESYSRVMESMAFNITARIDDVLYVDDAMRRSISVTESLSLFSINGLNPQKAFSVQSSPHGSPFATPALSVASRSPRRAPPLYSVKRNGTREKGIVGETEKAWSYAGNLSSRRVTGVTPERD
In words: pull-down; GST-GEF1 on Glutathione Sepharose beads as bait, StrepII-tagged input proteins; bound proteins detected by blot for Strep-II. Particulars: both partners purified.

This is an account of results in PMC4871701, “Release of GTP Exchange Factor Mediated Down-Regulation of Abscisic Acid Signal Transduction through ABA-Induced Rapid Degradation of RopGEFs” (PLoS Biology, 2016).

B1: StrepII-ABI1 (enzyme, Arabidopsis thaliana, UniProt P49597 1-434, looked up)
chain: MEEVSPAIAGPFRPFSETQMDFTGIRLGKGYCNNQYSNQDSENGDLMVSLPETSSCSVSGSHGSESRKVLISRINSPNLNMKESAAADIVVVDISAGDEINGSDITSEKKMISRTESRSLFEFKSVPLYGFTSICGRRPEMEDAVSTIPRFLQSSSGSMLDGRFDPQSAAHFFGVYDGHGGSQVANYCRERMHLALAEEIAKEKPMLCDGDTWLEKWKKALFNSFLRVDSEIESVAPETVGSTSVVAVVFPSHIFVANCGDSRAVLCRGKTALPLSVDHKPDREDEAARIEAAGGKVIQWNGARVFGVLAMSRSIGDRYLKPSIIPDPEVTAVKRVKEDDCLILASDGVWDVMTDEEACEMARKRILLWHKKNAVAGDASLLADERRKEGKDPAAMSAAEYLSKLAIQRGSKDNISVVVVDLKPRRKLKSKPLN
notes: ABI1, type 2C protein phosphatase, Arabidopsis thaliana; also called Strep-II tagged ABI1; source: E. coli Rosetta (DE3) pLysS, purified (Strep-Tactin resin); not shown: Strep-II, N-terminal, kept
For the molecule B1, the binding result is “binds”.

B2: StrepII-ROP11 (natural protein)
chain: not shown
notes: ROP11, ROP/RAC small GTPase, Arabidopsis thaliana; also called Strep-II tagged ROP11; source: E. coli Rosetta (DE3) pLysS, purified (Strep-Tactin resin); not shown: Strep-II, N-terminal, kept
Turning to B2, the binding result is reported as “binds”.
